# B1: full length Xaxin: full length Xenopus axin, amino acid residues 1-842 (SEQ ID NO: 8) (protein, listed as Xenopus laevis)
# chain: MSVKGKGFPLDLGGSFTEDAPRPPVPGEEGELITTDQRPFSHTYYSLKNDGIKNETSTATPRRPDLDLGYEPEGSASPTPPYLKWAESLHSLLDDQDGIHLFRTFLQQENCADLLDFWFACSGFRKLEPNDSKVEKRLKLAKAIYKKYVLDSNGIVSRQIKPATKSFIKDCVLRQQIDPAMFDQAQMEIQSMMEDNTYPVFLKSDIYLEYTTIGGESPKNYSDQSSGSGTGKGPSGYLPTLNEDEEWRCDQGGEHERERECIPSSLFSQKLALDSSSHCAGSNRRLSDGREFRPGTWREPVNPYYVNTGYAGAPVTSANDSEQQSMSSDADTMSLTDSSVDGIPPYRLRKHYRREMQESANANGRGPLPHIPRTYHMPKDIHVDPEKFAAELISRLEGVLRDREAEQKLEERLKRVRAEEEGDDGDVSSGPSVISHKLPSGPPMHHFNSRYSETGCVGMQIRDAHEENPESILDEHVQRVMKTPGCQSPGTGRHSPKSRSPDGHLSKTLPGSLGTMQTGHGKHSSKSTAKVDSGNLHHHKHVYHHVHHHGGVKPKEQIDGESTQRVQTNFPWNVESHNYATKSRNYAESMGMAPNPMDSLAYSGKVSMLSKRNAKKADLGKSESASHEMPVVPEDSERHQKILQWIMEGEKEIIRHKKSNHSSSSAKKQPPTELARPLSIERPGAVHPWVSAQLRNVVQPSHPFIQDPTMPPNPAPNPLTQLVSKPGARLEEEEKKAAKMPQKQRLKPQKKNVSAPSQPCDNIVVAYYFCGEPIPYRTMVKGRVVTLGQFKELLTKKGNYRYYFKKVSDEFDCGVVFEEVREDDMILPIYEEKIIGQVEKID
# Key:
# [1] = tested on: GSK-3 beta protein lacking amino-terminal or carboxyl-terminal residues; experiment: Binding of full length axin to truncated GSK-3 beta; conditions: GSK-3 beta lacking as many as 62 amino-terminal or 132 carboxyl-terminal residues
# [2] = tested on: GSK-3 beta; experiment: In ovo tau phosphorylation assay: GSK-3 beta and Xaxin constructs co-expressed in Xenopus oocytes; type: cell-based; conditions: construct co-expressed with GSK-3 beta in Xenopus oocytes; tau microinjected; PHF-1 immunoblot
# Description: Stage VI Xenopus oocytes were isolated by collagenase treatment (Smith et al., 1994, Meth. Cell Biol. 36:45-58) and were injected with mRNA prepared by in vitro transcription (mMessage Machine™; Ambion, Austin, Tex.). 10 nanoliters of mRNA (containing 1-2 nanograms per nanoliter) was injected for each construct (unless otherwise specified), and the injected oocytes were incubated for 16 hours at 18° C. To analyze the effects of Xaxin constructs on dorsal-ventral pattern formation, Xenopus embryos were injected with 10 nanoliters of mRNA (0.1-0.2 nanogram per nanoliter) into one dorsal or ventral cell of a 4 cell embryo and dorsal axes were assessed at the tadpole stage. For Xaxin co-immunoprecipitation, fertilized eggs were injected with 10 nanoliters of Xaxin tagged with Myc, with hemagglutinin, or with both Myc and hemagglutinin (1 nanogram per nanoliter) and harvested at the blastula stage (stage 8).
# In ovo phosphorylation of tau by GSK-3 beta was performed by microinjection of tau protein into oocytes expressing GSK-3 beta and Xaxin constructs. After 90 minutes, oocytes were homogenized and tau phosphorylation was analyzed in western blots using phospho-specific antibodies as described (Hedgepeth et al., 1997, Develop. Biol. 185:82-91). In vitro assays for GSK-3 beta activity were performed as described (Klein et al., 1996, Proc. Natl. Acad. Sci. USA 93:8455-8459). Recombinant GID-2/his protein (described below) was purified by affinity chromatography and added to in vitro assays at selected concentrations.
# In the experiments presented in this example, a tau phosphorylation assay (described in Hedgepeth et al., 1997, Develop. Biol. 185:82-91) was used to examine the activity of GSK-3 beta in Xenopus oocytes in the presence of full length axin and axin deletion mutants. […] Furthermore, GSK-3 beta-dependent tau phosphorylation occurs in oocytes at the same sites (tau serine residues 396 and 404) that are phosphorylated by GSK-3 beta in vitro and occurs with similarly rapid kinetics.
# GSK-3 beta was expressed in oocytes together with Myc-tagged full length Xaxin or with the amino-terminal (amino acid residues 63-288), GID-1 (amino acid residues 277-545), or carboxyl-terminal (amino acid residues 429-713) fragments of Xaxin, as depicted in FIG. 1A. Purified tau protein was then microinjected into the oocytes, and phosphorylation of tau was measured by immunoblotting using antibody PHF-1 or with antibodies that detect all (i.e. phosphorylated and non-phosphorylated) forms of tau.
# In order to identify the domain of axin necessary for GSK-3 beta binding, multiple Myc-tagged GID deletion constructs (shown diagrammatically in FIG. 3A) were individually expressed in Xenopus oocytes in which GSK-3 beta was also expressed. Tau protein was microinjected into the oocytes, and immunoblotting was performed using phosphorylation-state-specific tau antibodies. A parallel group of oocytes expressing GSK-3 beta and the Myc-tagged GID deletion constructs were lysed, and GID proteins were immunoprecipitated using a Myc-specific antibody. The presence or absence of GSK-3 beta in GID immunoprecipitates was detected using GSK-3 beta-specific antibodies. GID deletion constructs which included amino acid residues 380-404 of Xaxin (i.e. constructs GID-1, GID-2, GID-4, GID-5, and GID-6) bound GSK-3 beta and inhibited GSK-3 beta mediated tau phosphorylation, as indicated in FIG. 3A. […] However, changing leucine residue 392 in FIG. 3B to proline abolishes its activity.
# [3] = tested on: GSK-3 beta; experiment: Co-immunoprecipitation of GSK-3 beta with Myc-tagged Xaxin constructs in Xenopus oocytes; type: binding; conditions: Myc-tagged construct co-expressed with GSK-3 beta in Xenopus oocytes; anti-Myc IP, anti-GSK-3 beta blot
# [4] = tested on: disheveled; experiment: Yeast two hybrid assay, interaction with disheveled; type: binding; conditions: beta-galactosidase filter assay in S. cerevisiae
# Text: FL Xaxin was cloned in frame with the GAL4 DNA binding domain (BD) in plasmid pAS2-1 (Clontech) to yield BD plasmid. Expression of BD plasmid yielded a Xaxin-GAL4 fusion protein. FL Xaxin, deltaDIX Xaxin, and a fragment (designated “AID”) encoding amino acid residues 489-777 of Xaxin were cloned in frame with the GAL4 transcriptional activation domain (AD) in the vector pACT2 to yield AD plasmids. Yeast were transformed with BD and AD plasmids using previously described protocols (Clontech, Palo Alto, Calif.). Transformed colonies were selected and assayed for beta-galactosidase activity in order to detect interacting proteins. In addition, three Xenopus axin partial length cDNAs (designated Y2H 2, Y2H 6, Y2H 7; all in plasmid pACT2) isolated from a previous yeast two hybrid screen (Hedgepeth et al., 1999, Mech. Develop. 80:147-151) were analyzed. Purification of GID
# Using the yeast two hybrid assay, the ability of axin to bind with itself, with other members of the wnt pathway, or with the G(alpha)q subunit of heterotrimeric G-proteins, was investigated. […]
# Saccharomyces cerevisiae cells were transformed with the bait vector and with one of the target vectors. Interaction was assessed using a filter assay to detect beta-galactosidase activity, as described (Fields et al., 1989, Nature 340:245-247; Harper et al., 1993, Cell 75:805-816). […]
# [5] = target: T1, axin (Xenopus laevis, UniProt Q9YGY0); experiment: Co-immunoprecipitation of myc-tagged and HA-tagged axin in Xenopus embryos; type: binding
# T1 construct: Full length (FL) Xaxin was assembled into plasmid CS2MT using restriction fragments of partial cDNA clones; expressed in transfected cells; host or cells: Xenopus embryos (fertilized eggs injected with mRNA, harvested at stage 8)
molecule,measurement,setting,value
B1,binding with truncated GSK-3 beta,[1],able to bind
same,GSK-3 beta-mediated tau phosphorylation (GSK-3 beta activity),[2],no discernible effect
same,binding with GSK-3 beta (co-immunoprecipitation),[3],bound
same,interaction with disheveled,[4],did not interact
same,axin self-interaction (co-immunoprecipitation),[5],interacts with itself

# — patent publication US20010052137A1, “Axin domain-like polypeptide inhibitors of glycogen synthase kinase 3 beta activity and activators of wnt signaling” (Trustees of the University of Pennsylvania, priority 2000, published 2001)
